In article PMC9482650, “Quantitative fragmentomics allow affinity mapping of interactomes” (Nature Communications, 2022):

Columns and labels:
Assay in all cases: holdup assay
Design in all cases: key: below the threshold = too weak to quantify, mostly under pKd 3.1 to 4
IL16_3, Q14005 = target: IL16_3, Q14005
LNX2_3, Q8N448 = target: T1, LNX2_3, Q8N448
T1 sequence (Q8N448 463-564, limits assumed, looked up): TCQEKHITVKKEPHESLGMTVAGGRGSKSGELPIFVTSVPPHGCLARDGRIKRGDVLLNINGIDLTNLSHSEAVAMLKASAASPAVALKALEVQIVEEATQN

APBA2_1, Q99767 = target: T2, APBA2_1, Q99767
T2 sequence (Q99767 563-664, limits assumed, looked up): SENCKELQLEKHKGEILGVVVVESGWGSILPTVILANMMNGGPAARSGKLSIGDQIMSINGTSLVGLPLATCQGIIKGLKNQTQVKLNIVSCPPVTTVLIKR

LNX1_3, Q8TBB1 = target: LNX1_3, Q8TBB1
MAGI1_2, Q96QZ7 = target: MAGI1_2, Q96QZ7
PDZRN3_1, Q9UPQ7 = target: T3, PDZRN3_1, Q9UPQ7
T3 sequence (Q9UPQ7 244-349, limits assumed, looked up): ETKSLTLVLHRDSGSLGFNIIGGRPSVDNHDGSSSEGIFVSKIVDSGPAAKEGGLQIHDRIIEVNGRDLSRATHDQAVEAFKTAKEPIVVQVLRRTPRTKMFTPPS

GOPC, Q9HD26 = target: GOPC, Q9HD26
SCRIB_3, Q14160 = target: SCRIB_3, Q14160
MPDZ_5, O75970 = target: T4, MPDZ_5, O75970
T4 sequence (O75970 695-796, limits assumed, looked up): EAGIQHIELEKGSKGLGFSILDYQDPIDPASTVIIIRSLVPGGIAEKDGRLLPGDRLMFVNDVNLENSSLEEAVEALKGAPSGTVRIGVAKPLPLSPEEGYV

MAGI2_5, Q86UL8 = target: MAGI2_5, Q86UL8
GORASP1, Q9BQQ3 = target: GORASP1, Q9BQQ3
PICK1, Q9NRD5 = target: PICK1, Q9NRD5
NOS1, P29475 = target: NOS1, P29475
TJP2_1, Q9UDY2 = target: TJP2_1, Q9UDY2
NHERF3_4, Q5T2W1 = target: T5, NHERF3_4, Q5T2W1
T5 sequence (Q5T2W1 373-468, limits assumed, looked up): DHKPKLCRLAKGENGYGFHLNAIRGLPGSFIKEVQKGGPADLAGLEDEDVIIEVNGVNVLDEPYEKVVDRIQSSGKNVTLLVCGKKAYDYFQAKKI

MAGI2_4, Q86UL8 = target: MAGI2_4, Q86UL8
PDZD2_2, O15018 = target: T6, PDZD2_2, O15018
T6 sequence (O15018 329-429, limits assumed, looked up): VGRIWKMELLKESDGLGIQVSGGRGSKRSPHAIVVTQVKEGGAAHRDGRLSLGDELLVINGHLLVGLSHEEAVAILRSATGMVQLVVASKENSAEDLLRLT

TJP3_3, O95049 = target: T7, TJP3_3, O95049
T7 sequence (O95049 375-456, limits assumed, looked up): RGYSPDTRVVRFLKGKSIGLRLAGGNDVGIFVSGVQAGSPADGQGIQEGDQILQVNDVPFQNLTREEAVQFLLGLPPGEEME

MAGI2_6, Q86UL8 = target: MAGI2_6, Q86UL8
LNX2_2, Q8N448 = target: T8, LNX2_2, Q8N448
T8 sequence (Q8N448 334-432, limits assumed, looked up): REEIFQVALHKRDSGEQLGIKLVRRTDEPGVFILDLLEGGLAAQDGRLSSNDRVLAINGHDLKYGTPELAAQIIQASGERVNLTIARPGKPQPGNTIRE

PDZD7_3, Q9H5P4 = target: T9, PDZD7_3, Q9H5P4
T9 sequence (Q9H5P4 857-944, limits assumed, looked up): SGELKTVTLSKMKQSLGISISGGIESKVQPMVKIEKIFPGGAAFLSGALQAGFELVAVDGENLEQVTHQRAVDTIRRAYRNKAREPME

LNX1_1, Q8TBB1 = target: LNX1_1, Q8TBB1
RADIL, Q96JH8 = target: T10, RADIL, Q96JH8
T10 sequence (Q96JH8 971-1071, limits assumed, looked up): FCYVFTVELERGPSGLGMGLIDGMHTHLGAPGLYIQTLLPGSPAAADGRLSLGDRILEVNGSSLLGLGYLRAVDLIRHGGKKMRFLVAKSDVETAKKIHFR

SYNJ2BP, P57105 = target: T11, SYNJ2BP, P57105
T11 sequence (P57105 8-110, limits assumed, looked up): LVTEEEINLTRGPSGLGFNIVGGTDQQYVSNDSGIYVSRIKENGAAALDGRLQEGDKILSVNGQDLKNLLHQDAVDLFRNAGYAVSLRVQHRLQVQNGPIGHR

GRIP1_5, Q9Y3R0 = target: T12, GRIP1_5, Q9Y3R0
T12 sequence (Q9Y3R0 568-668, limits assumed, looked up): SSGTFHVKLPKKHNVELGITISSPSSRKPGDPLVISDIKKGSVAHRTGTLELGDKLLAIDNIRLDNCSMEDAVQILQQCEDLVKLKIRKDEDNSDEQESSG

NHERF4_2, Q86UT5 = target: NHERF4_2, Q86UT5
[1] = plain residues with an end cap or a label only (N-terminal biotin on a linker: ado-ado)
[2] = plain residues with an end cap or a label only (N-terminal biotin on a linker: ttds)
[3] = plain residues with an end cap or a label only (N-terminal biotin on a linker: ahx)

Sequence of MAGI2_5, Q86UL8 (Q86UL8 915-1017): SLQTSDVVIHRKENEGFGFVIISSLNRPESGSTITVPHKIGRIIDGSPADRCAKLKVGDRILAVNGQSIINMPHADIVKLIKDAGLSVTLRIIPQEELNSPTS
Sequence of SCRIB_3, Q14160 (Q14160 999-1103): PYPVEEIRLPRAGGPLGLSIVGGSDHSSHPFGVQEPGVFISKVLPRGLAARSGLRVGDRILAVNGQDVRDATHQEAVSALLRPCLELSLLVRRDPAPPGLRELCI
Sequence of LNX1_1, Q8TBB1 (Q8TBB1 261-371): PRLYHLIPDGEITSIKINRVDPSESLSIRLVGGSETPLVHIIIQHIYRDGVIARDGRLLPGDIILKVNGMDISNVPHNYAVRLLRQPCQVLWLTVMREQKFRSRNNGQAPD
Sequence of TJP2_1, Q9UDY2 (Q9UDY2 24-128): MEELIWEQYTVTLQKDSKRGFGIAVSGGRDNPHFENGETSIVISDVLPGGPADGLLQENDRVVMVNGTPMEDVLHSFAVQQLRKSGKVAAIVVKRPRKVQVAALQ
Sequence of MAGI2_4, Q86UL8 (Q86UL8 772-865): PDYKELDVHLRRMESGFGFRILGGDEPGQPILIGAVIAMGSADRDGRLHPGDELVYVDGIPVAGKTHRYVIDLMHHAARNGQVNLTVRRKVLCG
Sequence of IL16_3, Q14005 (Q14005 1107-1207): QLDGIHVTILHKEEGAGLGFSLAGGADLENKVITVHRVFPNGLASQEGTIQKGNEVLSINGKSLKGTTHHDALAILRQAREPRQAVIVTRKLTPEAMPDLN
Sequence of NOS1, P29475 (P29475 9-101): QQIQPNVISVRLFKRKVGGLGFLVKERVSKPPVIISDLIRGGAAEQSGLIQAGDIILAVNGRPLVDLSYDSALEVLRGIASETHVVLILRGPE
Sequence of MAGI1_2, Q96QZ7 (Q96QZ7 456-580): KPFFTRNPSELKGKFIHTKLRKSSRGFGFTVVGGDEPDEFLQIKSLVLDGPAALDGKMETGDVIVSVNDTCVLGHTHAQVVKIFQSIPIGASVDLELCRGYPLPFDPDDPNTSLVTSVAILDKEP
Sequence of NHERF4_2, Q86UT5 (Q86UT5 220-308): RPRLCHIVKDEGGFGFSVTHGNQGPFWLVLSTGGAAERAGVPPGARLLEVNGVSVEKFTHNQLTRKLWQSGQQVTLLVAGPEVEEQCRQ
Sequence of LNX1_3, Q8TBB1 (Q8TBB1 500-596): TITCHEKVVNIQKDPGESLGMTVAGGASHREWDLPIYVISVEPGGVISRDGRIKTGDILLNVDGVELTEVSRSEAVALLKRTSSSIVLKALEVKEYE
Sequence of GORASP1, Q9BQQ3 (Q9BQQ3 1-208): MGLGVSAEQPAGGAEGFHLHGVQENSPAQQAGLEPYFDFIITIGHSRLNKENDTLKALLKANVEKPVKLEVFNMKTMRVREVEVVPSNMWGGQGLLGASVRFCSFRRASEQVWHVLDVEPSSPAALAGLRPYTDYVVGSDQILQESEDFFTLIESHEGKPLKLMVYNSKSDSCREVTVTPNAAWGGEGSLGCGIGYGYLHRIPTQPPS
Sequence of MAGI2_6, Q86UL8 (Q86UL8 1141-1229): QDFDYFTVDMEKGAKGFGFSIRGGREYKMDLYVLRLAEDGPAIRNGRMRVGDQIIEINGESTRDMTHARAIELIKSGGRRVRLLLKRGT
Sequence of PICK1, Q9NRD5 (Q9NRD5 17-115): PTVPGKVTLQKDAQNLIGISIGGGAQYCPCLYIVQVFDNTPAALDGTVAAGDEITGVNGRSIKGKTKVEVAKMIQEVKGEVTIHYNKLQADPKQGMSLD

B1: U2AF2, P26368 (peptide)
chain: PDSYHRRDFW
pKd (IL16_3, Q14005; [1]): below the threshold | pKd (LNX2_3, Q8N448; [1]): below the threshold | pKd (APBA2_1, Q99767; [1]): below the threshold | pKd (LNX1_3, Q8TBB1; [1]): below the threshold | pKd (MAGI1_2, Q96QZ7; [1]): below the threshold | pKd (PDZRN3_1, Q9UPQ7; [1]): below the threshold | pKd (GOPC, Q9HD26; [1]): 3.6 | pKd (SCRIB_3, Q14160; [1]): below the threshold | pKd (MPDZ_5, O75970; [1]): below the threshold | pKd (MAGI2_5, Q86UL8; [1]): below the threshold | pKd (GORASP1, Q9BQQ3; [1]): 3.52 | pKd (PICK1, Q9NRD5; [1]): 4.17 | pKd (NOS1, P29475; [1]): below the threshold | pKd (TJP2_1, Q9UDY2; [1]): 3.56 | pKd (NHERF3_4, Q5T2W1; [1]): below the threshold | pKd (MAGI2_4, Q86UL8; [1]): 3.54 | pKd (PDZD2_2, O15018; [1]): below the threshold | pKd (TJP3_3, O95049; [1]): below the threshold | pKd (MAGI2_6, Q86UL8; [1]): below the threshold | pKd (LNX2_2, Q8N448; [1]): below the threshold | pKd (PDZD7_3, Q9H5P4; [1]): below the threshold | pKd (LNX1_1, Q8TBB1; [1]): below the threshold | pKd (RADIL, Q96JH8; [1]): below the threshold | pKd (SYNJ2BP, P57105; [1]): below the threshold | pKd (GRIP1_5, Q9Y3R0; [1]): below the threshold | pKd (NHERF4_2, Q86UT5; [1]): 3.64

B2: MAPK12, P53778 (peptide)
chain: GARVSKETPL
pKd (IL16_3, Q14005; [2]): below the threshold | pKd (LNX2_3, Q8N448; [2]): below the threshold | pKd (APBA2_1, Q99767; [2]): below the threshold | pKd (LNX1_3, Q8TBB1; [2]): below the threshold | pKd (MAGI1_2, Q96QZ7; [2]): 3.76 | pKd (PDZRN3_1, Q9UPQ7; [2]): 4.84 | pKd (GOPC, Q9HD26; [2]): below the threshold | pKd (SCRIB_3, Q14160; [2]): 5.07 | pKd (MPDZ_5, O75970; [2]): below the threshold | pKd (MAGI2_5, Q86UL8; [2]): below the threshold | pKd (GORASP1, Q9BQQ3; [2]): below the threshold | pKd (PICK1, Q9NRD5; [2]): below the threshold | pKd (NOS1, P29475; [2]): 3.82 | pKd (TJP2_1, Q9UDY2; [2]): below the threshold | pKd (NHERF3_4, Q5T2W1; [2]): 3.72 | pKd (MAGI2_4, Q86UL8; [2]): below the threshold | pKd (PDZD2_2, O15018; [2]): below the threshold | pKd (TJP3_3, O95049; [2]): below the threshold | pKd (MAGI2_6, Q86UL8; [2]): 3.89 | pKd (LNX2_2, Q8N448; [2]): below the threshold | pKd (PDZD7_3, Q9H5P4; [2]): 3.86 | pKd (LNX1_1, Q8TBB1; [2]): below the threshold | pKd (RADIL, Q96JH8; [2]): below the threshold | pKd (SYNJ2BP, P57105; [2]): 4.69 | pKd (GRIP1_5, Q9Y3R0; [2]): below the threshold | pKd (NHERF4_2, Q86UT5; [2]): below the threshold

B3: GDA, Q9Y2T3 (peptide)
chain: KQVVPFSSSV
pKd (IL16_3, Q14005; [2]): below the threshold | pKd (LNX2_3, Q8N448; [2]): below the threshold | pKd (APBA2_1, Q99767; [2]): below the threshold | pKd (LNX1_3, Q8TBB1; [2]): 3.55 | pKd (MAGI1_2, Q96QZ7; [2]): below the threshold | pKd (PDZRN3_1, Q9UPQ7; [2]): below the threshold | pKd (GOPC, Q9HD26; [2]): 3.65 | pKd (SCRIB_3, Q14160; [2]): 3.93 | pKd (MPDZ_5, O75970; [2]): 3.52 | pKd (MAGI2_5, Q86UL8; [2]): 3.74 | pKd (GORASP1, Q9BQQ3; [2]): below the threshold | pKd (PICK1, Q9NRD5; [2]): below the threshold | pKd (NOS1, P29475; [2]): below the threshold | pKd (TJP2_1, Q9UDY2; [2]): below the threshold | pKd (NHERF3_4, Q5T2W1; [2]): below the threshold | pKd (MAGI2_4, Q86UL8; [2]): 3.69 | pKd (PDZD2_2, O15018; [2]): 4.93 | pKd (TJP3_3, O95049; [2]): below the threshold | pKd (MAGI2_6, Q86UL8; [2]): 4.02 | pKd (LNX2_2, Q8N448; [2]): 3.65 | pKd (PDZD7_3, Q9H5P4; [2]): 3.59 | pKd (LNX1_1, Q8TBB1; [2]): 3.84 | pKd (RADIL, Q96JH8; [2]): 3.76 | pKd (SYNJ2BP, P57105; [2]): 5 | pKd (GRIP1_5, Q9Y3R0; [2]): below the threshold | pKd (NHERF4_2, Q86UT5; [2]): below the threshold

B4: DLL1, O00548 (peptide)
chain: KDECVIATEV
pKd (IL16_3, Q14005; [3]): below the threshold | pKd (LNX2_3, Q8N448; [3]): below the threshold | pKd (APBA2_1, Q99767; [3]): below the threshold | pKd (LNX1_3, Q8TBB1; [3]): below the threshold | pKd (MAGI1_2, Q96QZ7; [3]): below the threshold | pKd (PDZRN3_1, Q9UPQ7; [3]): below the threshold | pKd (GOPC, Q9HD26; [3]): below the threshold | pKd (SCRIB_3, Q14160; [3]): 4.11 | pKd (MPDZ_5, O75970; [3]): below the threshold | pKd (MAGI2_5, Q86UL8; [3]): 5.32 | pKd (GORASP1, Q9BQQ3; [3]): below the threshold | pKd (PICK1, Q9NRD5; [3]): below the threshold | pKd (NOS1, P29475; [3]): 3.55 | pKd (TJP2_1, Q9UDY2; [3]): below the threshold | pKd (NHERF3_4, Q5T2W1; [3]): below the threshold | pKd (MAGI2_4, Q86UL8; [3]): 3.64 | pKd (PDZD2_2, O15018; [3]): 4.51 | pKd (TJP3_3, O95049; [3]): below the threshold | pKd (MAGI2_6, Q86UL8; [3]): 4.55 | pKd (LNX2_2, Q8N448; [3]): 4.27 | pKd (PDZD7_3, Q9H5P4; [3]): 4.63 | pKd (LNX1_1, Q8TBB1; [3]): 3.72 | pKd (RADIL, Q96JH8; [3]): 3.61 | pKd (SYNJ2BP, P57105; [3]): 4.33 | pKd (GRIP1_5, Q9Y3R0; [3]): below the threshold | pKd (NHERF4_2, Q86UT5; [3]): below the threshold
